Two molecules from patent US20240327530A1 (ICHNOS SCIENCES, published 2024) can be followed below.

The target in this test is T1, gg-hs-hs IL-1RAP.
T1 construct: chicken/human IL-1RAP chimera; also called IL-1RAP-ECD(ggD1(S139-P246)-hsD2(V132-V233)-hsD3(V234-E359))-Avi-His; gg-hs-hs-IL-1RAP-ECD-avi-his
T1 single chain: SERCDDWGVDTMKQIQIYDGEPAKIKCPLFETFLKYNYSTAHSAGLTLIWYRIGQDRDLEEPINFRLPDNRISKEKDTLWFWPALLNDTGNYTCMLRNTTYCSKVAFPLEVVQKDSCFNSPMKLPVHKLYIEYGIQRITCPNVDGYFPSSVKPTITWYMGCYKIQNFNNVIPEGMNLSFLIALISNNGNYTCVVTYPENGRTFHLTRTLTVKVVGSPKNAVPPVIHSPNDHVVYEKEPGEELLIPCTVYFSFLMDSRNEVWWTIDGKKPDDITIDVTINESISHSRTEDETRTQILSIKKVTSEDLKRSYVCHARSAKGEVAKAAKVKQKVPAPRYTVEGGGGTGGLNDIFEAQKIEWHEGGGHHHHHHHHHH
As to the kind of experiment: SPR, IgG1 LALA captured on anti-human IgG Fc CM5 chip, chimera injected at 50 nM. The procedure: Human-chicken IL-1RAP chimeras were injected over immobilized anti-IL-1RAP IgG1 LALA at 50 nM in HBS-EP+ buffer followed by a dissociation in HBS-EP+ buffer. “hs” stands for a human domain and “gg” stands for a chicken domain. Human-chicken chimeras are then described by their respective human or chicken domains in successive order, e.g. hs-gg-gg IL-1RAP stands for IL-1RAP with human domain 1, chicken domain 2 and chicken domain 3. Plots show data expressed as number of resonance units (abbreviated RU; Y axis) vs. time (X axis).
Domain of IL-1RAP targeted by IgG1 LALA clones was identified by SPR binding assay. Around 150 RU of IgG1 LALA was immobilized on the fc2 of a Series S CM5 sensor chip previously coated with anti-human IgG Fc (BIACORE™, GE […]®, catalog no. BR100839) using a commercial amine coupling kit (BIACORE™, GE […]®, catalog no. BR100050). Human IL-1RAP-avi-his, chicken IL-1RAP-avi-his, chimeric protein comprising chicken domain 1 of IL-RAP fused to human domain 2 and 3 of IL-1RAP (gg-hs-hs-IL-1RAP-ECD-avi-his) and chimeric protein comprising chicken domain 1 and 2 of IL-1RAP fused to human domain 3 of IL-1RAP (gg-gg-hs-IL-1RAP-avi-his) were injected individually at 50 nM in HBS-EP+ for 3 min over fc1 and fc2 (fc1 being used as reference), followed by dissociation in HBS-EP+ buffer for 5 min. […]
Background: SPR reads the build-up and loss of mass on a sensor chip optically.

B1: anti-IL-1RAP-C8 IgG1 LALA (antibody, V domains shown)
VH: QVQLVQSGAEVKKPGSSVKVSCKASGGQFSEYAIQWVRQAPGQGLEWMGYIIPLHGQVDYAQKFQGRVTITADESTSTAYMELSSLRSEDTAVYYCARGQTLYDSGRQFDIWGQGTLVTVSS
VL: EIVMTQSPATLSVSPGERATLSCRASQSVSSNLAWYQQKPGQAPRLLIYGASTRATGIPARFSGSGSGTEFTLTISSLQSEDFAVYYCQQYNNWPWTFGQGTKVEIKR
notes: Human IgG1 with L234A/L235A (EU)
Consider B1, for which the binding result is given as “binds”.

B2: anti-IL-1RAP-C3 IgG1 LALA (antibody, V domains shown)
VH: EVQLLESGGGLVQPGGSLRLSCAASGFTFRDYAMGWVRQAPGKGLEWVSAISYDGEGTLYADSVKGRFTISRDNSKNTLYLQMNSLRAEDTAVYYCARFRYYTAFDYWGQGTLVTVSS
VL: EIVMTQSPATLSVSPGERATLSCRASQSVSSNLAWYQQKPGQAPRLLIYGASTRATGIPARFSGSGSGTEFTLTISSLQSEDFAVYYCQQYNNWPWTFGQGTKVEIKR
notes: as for B1
In the case of B2, the binding result is “binds”.
